From article PMC5027486 (Nucleic Acids Research, 2016)

B1: Pseudomonas aeruginosa DNA polymerase IV (Pol IV) (enzyme, UniProt Q9I534 1-349, looked up)
chain: MRKIIHIDCDCFYAALEMRDDPSLRGKALAVGGSPDKRGVVATCSYEARAYGVRSAMAMRTALKLCPDLLVVRPRFDVYRAVSKQIHAIFRDYTDLIEPLSLDEAYLDVSASPHFAGSATRIAQDIRRRVAEELHITVSAGVAPNKFLAKIASDWRKPDGLFVITPEQVDGFVAELPVAKLHGVGKVTAERLARMGIRTCADLRQGSKLSLVREFGSFGERLWGLAHGIDERPVEVDSRRQSVSVECTFDRDLPDLAACLEELPTLLEELDGRLQRLDGSYRPDKPFVKLKFHDFTQTTVEQSGAGRDLESYRQLLGQAFARGNRPVRLIGVGVRLLDLQGAHEQLRLF
B2: Pseudomonas aeruginosa mismatch repair protein MutS (natural protein, UniProt Q9HY08 1-855, looked up)
chain: MTDLSQHTPMMQQYFKLKHQHPDQLMFYRMGDFYELFYEDAKKAAKLLDITLTARGQSGGKAIPMAGIPFHSAEGYLAKLVKLGESVAICEQIGDPATSKGPVERQVVRIITPGTVSDEALLDERRDNLLAAILGDERLFGLAVLDITSGRFSVQEIKGWETLLAELERLNPAELLIPDDWPQGLPAEKRRGVRRRAPWDFDRDSAHKSLCQQFGTQDLKGFGCQNLTLAIGAAGCLLAYAKETQRTALPHLRSLRHDRLDDTVILDGASRRNLELDINLSGGRENTLQSVVDRCQTAMASRLMSRWLNRPLRDRAVLEARQESIACLLERYRFENLQPQLKEIGDLERILARIGLRNARPRDLARLRDALAALPDLQNAMTELEAPHLQALATTIGTYPELAELLAKAIIDNPPAVIRDGGVIKTGYDAELDELQALSENAGQFLMDLEAREKARTGLPNLKVGYNRIHGYFIELPRVQAEQAPADYIRRQTLKGAERFITPELKAFEDKALSAQSRALAREKALYEELLERLIGHLAPLQDSASALAELDVLANLAERALNLDLNRPRFVEHTCLHIEQGRHPVVEQVLETPFVANDLALDADTRMLVITGPNMGGKSTYMRQTALIVLLAHIGSFVPAARCELSLVDRIFTRIGSSDDLAGGRSTFMVEMSETANILHNATDKSLVLMDEVGRGTSTFDGLSLAWAAAEDLARTRAFTLFATHYFELTVLPESQPAVANVHLNATEHNERIVFLHHVLPGPASQSYGLAVAQLAGVPAPVIQRAREHLKRLETTSLPHEMPSQQSGKPASPMQSDLFASLPHPVIDELSRINPDDISPRQALDLLYAWKMRV
B3: Pseudomonas aeruginosa β clamp processivity factor (natural protein, UniProt Q9I7C4 1-367, looked up)
chain: MHFTIQREALLKPLQLVAGVVERRQTLPVLSNVLLVVEGQQLSLTGTDLEVELVGRVVLEDAAEPGEITVPARKLMDICKSLPNDVLIDIRVEEQKLLVKAGRSRFTLSTLPANDFPTVEEGPGSLNFSIAQSKLRRLIDRTSFAMAQQDVRYYLNGMLLEVNGGTLRSVATDGHRLAMCSLDAQIPSQDRHQVIVPRKGILELARLLTEQDGEVGIVLGQHHIRATTGEFTFTSKLVDGKFPDYERVLPRGGDKLVVGDRQQLREAFSRTAILSNEKYRGIRLQLSNGLLKIQANNPEQEEAEEEVQVEYNGGNLEIGFNVSYLLDVLGVIGTEQVRFILSDSNSSALVHEADNDDSAYVVMPMRL

Legend:
[1] = biological target: B3; experiment: native gel or EMSA
[2] = biological target: B3; experiment: SPR
[3] = biological target: B3; experiment: native gel or EMSA; remark: listed apart in the source
[4] = biological target: B2; experiment: native gel or EMSA
[5] = biological target: B2; experiment: SPR

MQSDLFA [MQSDLFA peptide (7-mer spanning the β clamp binding motif of MutS)]: binds [1].

Binder B1 has a Kd [2] of 8.97 µM, a koff [2] of 0.0052 s⁻¹ and a kon [2] of 580 M⁻¹ s⁻¹. The Kd [3] was 6.22 ± 0.51 µM and the “stoichiometry N” value [3] was 1.09 ± 0.06.

In the case of B2, the “stoichiometry N” value [3] is reported as 4.

With B3 the Kd [4] was 1.66 ± 0.09 µM, the koff [5] was 0.111 s⁻¹ and the kon [5] was 112000 M⁻¹ s⁻¹.
